Measurements from PMC12141448.

Key:
[1] = biological target: PelB of P. aeruginosa PAO1, C-terminal fragment (residues 762-1193) with three periplasmic TPR repeats and the transmembrane β-barrel (Pseudomonas aeruginosa PAO1) (UniProt Q9HZE5); test: cryo-EM structure; PelBC complex in MSP1D1 nanodiscs (POPC:POPG 70:30), 50 mM HEPES pH 7.4, 150 mM NaCl; no symmetry imposed; 2.52 Å
[2] = biological target: PelC lipoprotein of P. aeruginosa PAO1 (Pseudomonas aeruginosa PAO1); test: as above

Substance “PelC lipoprotein of P. aeruginosa PAO1 (natural protein)” has a stoichiometry N (PelC per PelB) [1] of 12 and a stoichiometry N [2] of 12 subunits.
